B1: Splicing factor 45 (Homo sapiens), Q96I25 (parent)
chain: MSLYDDLGVETSDSKTEGWSKNFKLLQSQLQVKKAALTQAKSQRTKQSTVLAPVIDLKRGGSSDDRQIVDTPPHVAAGLKDPVPSGFSAGEVLIPLADEYDPMFPNDYEKVVKRQREERQRQRELERQKEIEEREKRRKDRHEASGFARRPDPDSDEDEDYERERRKRSMGGAAIAPPTSLVEKDKELPRDFPYEEDSRPRSQSSKAAIPPPVYEEQDRPRSPTGPSNSFLANMGGTVAHKIMQKYGFREGQGLGKHEQGLSTALSVEKTSKRGGKIIVGDATEKDASKKSDSNPLTEILKCPTKVVLLRNMVGAGEVDEDLEVETKEECEKYGKVGKCVIFEIPGAPDDEAVRIFLEFERVESAIKAVVDLNGRYFGGRVVKACFYNLDKFRVLDLAEQV
partner: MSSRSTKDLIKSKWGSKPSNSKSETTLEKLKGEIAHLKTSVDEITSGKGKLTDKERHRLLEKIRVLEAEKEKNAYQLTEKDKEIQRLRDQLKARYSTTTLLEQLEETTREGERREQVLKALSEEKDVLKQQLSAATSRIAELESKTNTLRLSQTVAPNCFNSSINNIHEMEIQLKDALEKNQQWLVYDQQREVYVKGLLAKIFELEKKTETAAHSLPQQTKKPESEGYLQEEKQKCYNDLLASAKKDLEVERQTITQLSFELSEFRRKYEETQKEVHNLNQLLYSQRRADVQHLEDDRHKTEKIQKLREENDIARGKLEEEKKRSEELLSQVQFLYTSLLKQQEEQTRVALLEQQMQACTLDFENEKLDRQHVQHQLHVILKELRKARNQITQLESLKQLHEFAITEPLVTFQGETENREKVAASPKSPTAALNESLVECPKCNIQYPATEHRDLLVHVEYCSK
B2: ADP-ribosylation factor-like protein 11 (Homo sapiens), Q969Q4 (parent)
chain: MGSVNSRGHKAEAQVVMMGLDSAGKTTLLYKLKGHQLVETLPTVGFNVEPLKAPGHVSLTLWDVGGQAPLRASWKDYLEGTDILVYVLDSTDEARLPESAAELTEVLNDPNMAGVPFLVLANKQEAPDALPLLKIRNRLSLERFQDHCWELRGCSALTGEGLPEALQSLWSLLKSRSCMCLQARAHGAERGDSKRS
partner: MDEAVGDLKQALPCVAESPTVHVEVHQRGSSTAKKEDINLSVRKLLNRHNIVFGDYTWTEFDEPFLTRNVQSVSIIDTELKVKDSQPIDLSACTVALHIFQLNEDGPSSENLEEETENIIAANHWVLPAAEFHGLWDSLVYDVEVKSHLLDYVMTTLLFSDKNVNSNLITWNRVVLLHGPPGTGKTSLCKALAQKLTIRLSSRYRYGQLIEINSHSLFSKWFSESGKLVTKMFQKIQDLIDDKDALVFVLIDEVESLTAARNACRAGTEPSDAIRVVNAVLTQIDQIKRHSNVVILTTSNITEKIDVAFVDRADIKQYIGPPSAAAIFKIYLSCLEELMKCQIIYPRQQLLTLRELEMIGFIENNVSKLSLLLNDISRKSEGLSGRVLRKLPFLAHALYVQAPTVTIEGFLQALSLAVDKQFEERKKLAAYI
B3: Tuftelin-interacting protein 11 (Homo sapiens), Q9UBB9 (parent)
chain: MSLSHLYRDGEGRIDDDDDERENFEITDWDLQNEFNPNRQRHWQTKEEATYGVWAERDSDDERPSFGGKRARDYSAPVNFISAGLKKGAAEEAELEDSDDEEKPVKQDDFPKDFGPRKLKTGGNFKPSQKGFAGGTKSFMDFGSWERHTKGIGQKLLQKMGYVPGRGLGKNAQGIINPIEAKQRKGKGAVGAYGSERTTQSMQDFPVVDSEEEAEEEFQKELSQWRKDPSGSKKKPKYSYKTVEELKAKGRISKKLTAPQKELSQVKVIDMTGREQKVYYSYSQISHKHNVPDDGLPLQSQQLPQSGKEAKAPGFALPELEHNLQLLIDLTEQEIIQNDRQLQYERDMVVNLFHELEKMTEVLDHEERVISNLSKVLEMVEECERRMQPDCSNPLTLDECARIFETLQDKYYEEYRMSDRVDLAVAIVYPLMKEYFKEWDPLKDCTYGTEIISKWKSLLENDQLLSHGGQDLSADAFHRLIWEVWMPFVRNIVTQWQPRNCDPMVDFLDSWVHIIPVWILDNILDQLIFPKLQKEVENWNPLTDTVPIHSWIHPWLPLMQARLEPLYSPIRSKLSSALQKWHPSDSSAKLILQPWKDVFTPGSWEAFMVKNIVPKLGMCLGELVINPHQQHMDAFYWVIDWEGMISVSSLVGLLEKHFFPKWLQVLCSWLSNSPNYEEITKWYLGWKSMFSDQVLAHPSVKDKFNEALDIMNRAVSSNVGAYMQPGARENIAYLTHTERRKDFQYEAMQERREAENMAQRGIGVAASSVPMNFKDLIETKAEEHNIVFMPVIGKRHEGKQLYTFGRIVIYIDRGVVFVQGEKTWVPTSLQSLIDMAK
partner: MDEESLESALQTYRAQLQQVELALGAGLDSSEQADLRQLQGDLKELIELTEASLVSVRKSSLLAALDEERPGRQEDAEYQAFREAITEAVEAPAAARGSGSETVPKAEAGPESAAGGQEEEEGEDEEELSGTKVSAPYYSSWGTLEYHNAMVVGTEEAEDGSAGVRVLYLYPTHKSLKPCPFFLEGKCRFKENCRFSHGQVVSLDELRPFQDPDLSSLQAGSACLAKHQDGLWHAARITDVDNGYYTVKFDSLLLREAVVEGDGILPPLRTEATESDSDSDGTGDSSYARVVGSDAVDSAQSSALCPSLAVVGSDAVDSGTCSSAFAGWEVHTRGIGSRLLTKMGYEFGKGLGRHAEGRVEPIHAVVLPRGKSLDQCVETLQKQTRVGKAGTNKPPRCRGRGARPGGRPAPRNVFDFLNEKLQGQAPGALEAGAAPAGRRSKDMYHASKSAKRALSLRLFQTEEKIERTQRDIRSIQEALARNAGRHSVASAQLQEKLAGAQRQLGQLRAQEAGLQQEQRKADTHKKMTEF

Variants of: B1
Details: with cep55_human CEP55, Q53EZ4

Row | effect of a mutation on the interaction | Variant
1 | with no effect | MSLYDDLGVETSDSKTEGWSKNFKLLQSQLQVKKAALTQAKSQRTKQSTVLAPVIDLKRGGSSDDRQIVDTPPHVAAGLKDPVPSGFSAGEVLIPLADEYDPMFPNDYEKVVKRQREERQRQRELERQKEIEEREKRRKDRHEASGFARRPDPDSDEDEDYERERRKRSMGGAAIAPPTSLVEKDKELPRDFPYEEDSRPRSQSSKAAIPPPVYEEQDRPRSPIGPSNSFLANMGGTVAHKIMQKYGFREGQGLGKHEQGLSTALSVEKTSKRGGKIIVGDATEKDASKKSDSNPLTEILKCPTKVVLLRNMVGAGEVDEDLEVETKEECEKYGKVGKCVIFEIPGAPDDEAVRIFLEFERVESAIKAVVDLNGRYFGGRVVKACFYNLDKFRVLDLAEQV [T224I]

Variants of: B2
Details: with pch2_human TRIP13, Q15645

Row | effect of a mutation on the interaction | Variant
2 | with no effect | C148R

Variants of: B3
Details: with zgpat_human ZGPAT

Row | effect of a mutation on the interaction | Variant
3 | with no effect | R8Q
